The target in one series is T1, OsUGT91C1 (Oryza sativa, UniProt Q0DPB7).
T1 construct: gene Os03g0702000; synthetic coding region in pET28b, His-tagged, E. coli BL21(DE3); HisTrap and gel filtration; tag removal not mentioned; monomer
T1 sequence (Q0DPB7 1-462): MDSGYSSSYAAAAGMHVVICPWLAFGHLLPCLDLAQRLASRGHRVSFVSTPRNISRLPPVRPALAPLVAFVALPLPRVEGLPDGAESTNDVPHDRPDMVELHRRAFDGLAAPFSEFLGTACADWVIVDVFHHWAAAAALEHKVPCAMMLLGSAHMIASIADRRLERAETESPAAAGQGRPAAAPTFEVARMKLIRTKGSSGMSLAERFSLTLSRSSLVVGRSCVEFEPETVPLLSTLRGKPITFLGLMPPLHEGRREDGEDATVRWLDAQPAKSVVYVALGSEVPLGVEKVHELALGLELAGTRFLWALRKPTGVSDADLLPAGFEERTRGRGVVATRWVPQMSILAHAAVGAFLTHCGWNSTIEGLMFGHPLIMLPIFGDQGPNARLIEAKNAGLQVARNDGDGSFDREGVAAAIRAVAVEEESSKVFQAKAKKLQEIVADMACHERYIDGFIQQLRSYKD
Briefly: X-ray crystal structure. In kind it is binding. Conditions: complexes with Reb E, ST or STB; UDP-glucose site.

Substrate in the series “purified protein”: C=C1C[C@@]23CC[C@H]4[C@@](C)(CCC[C@@]4(C)C(=O)O[C@@H]4O[C@H](CO)[C@@H](O)[C@H](O)[C@H]4O)[C@@H]2CC[C@]1(O[C@@H]1O[C@H](CO)[C@@H](O)[C@H](O[C@@H]2O[C@H](CO)[C@@H](O)[C@H](O)[C@H]2O)[C@H]1O[C@@H]1O[C@H](CO)[C@@H](O)[C@H](O)[C@H]1O)C3
Briefly: purified protein. Conditions: 200 μM UDP-glucose; beta(1-2) glucosylation at R2.

Substrate in series [1]: C=C1C[C@@]23CC[C@H]4[C@@](C)(CCC[C@@]4(C)C(=O)O[C@@H]4O[C@H](CO)[C@@H](O)[C@H](O)[C@H]4O)[C@@H]2CC[C@]1(O[C@@H]1O[C@H](CO)[C@@H](O)[C@H](O)[C@H]1O)C3
Briefly: UDP-Glo glycosyltransferase assay, Michaelis-Menten fit. In kind it is biochemical, Oryza sativa. The following applies: 200 μM UDP-glucose; combined beta(1-2) glucosylation at R1 and R2.

Substrate in series [2]: C=C1C[C@@]23CC[C@H]4[C@@](C)(CCC[C@@]4(C)C(=O)O)[C@@H]2CC[C@]1(O[C@@H]1O[C@H](CO)[C@@H](O)[C@H](O)[C@H]1O)C3
The description is as above. Conditions: 200 μM UDP-glucose; beta(1-2) glucosylation at R1. The format is biochemical, Oryza sativa.

Substrate in series [3]: C=C1C[C@@]23CC[C@H]4[C@@](C)(CCC[C@@]4(C)C(=O)O)[C@@H]2CC[C@]1(O[C@@H]1O[C@H](CO)[C@@H](O)[C@H](O)[C@H]1O[C@@H]1O[C@H](CO)[C@@H](O)[C@H](O)[C@H]1O)C3
The description is as above. In kind it is biochemical, Oryza sativa. The following applies: 200 μM UDP-glucose; beta(1-6) glucosylation at R1; crystal structure with UDP, R1 end at active site.

Positions count from the first letter of the chain named. Numbers in names are those of the source.

Turning to `O=c1ccn([C@@H]2O[C@H](COP(=O)(O)OP(=O)(O)O)[C@@H](O)[C@H]2O)c(=O)[nH]1` [UDP], the X-ray crystal structure entry at OsUGT91C1 is “UDP is bound identically in all four complexes”.

B1: OsUGT91C1 (Oryza sativa Japonica Group; F208M) (protein)
chain: T1 sequence (Q0DPB7 1-462) with F208M
notes: synthetic coding region in pET28b, His-tagged, E. coli BL21(DE3); HisTrap and gel filtration; tag removal not mentioned; monomer
One may read the Km as the concentration of substrate that gives half-maximal velocity. The kcat is the maximal rate divided by the concentration of active sites. The term kcat/Km denotes the turnover number divided by the Michaelis constant. As to B1, the Km stood at 25.2 ± 2.0 µM in the series “purified protein”, 20.9 ± 1.7 µM in series [1] and 18.7 ± 1.7 µM in series [2]. Also, the kcat in “purified protein” amounted to 0.0483 s⁻¹; in series [1] it was 0.04 ± 0.00167 s⁻¹; in series [2] it was 0.065 ± 0.00167 s⁻¹. Moreover, the kcat/Km stood at 1920 M⁻¹ s⁻¹ in “purified protein”, 1910 M⁻¹ s⁻¹ in series [1] and 3480 M⁻¹ s⁻¹ in series [2].

B2: OsUGT91C1 (Oryza sativa Japonica Group; F379A) (protein)
chain: T1 sequence (Q0DPB7 1-462) with F379A
notes: as for B1
Turning to B2, the Km in the series “purified protein” is 37.0 ± 2.5 µM; in series [1], 16.5 ± 2.6 µM; in series [2] it was 19.0 ± 2.6 µM. In addition, the results for the kcat (in the series “purified protein”; in series [1]; in series [2]) were 0.0193 s⁻¹, 0.045 ± 0.00167 s⁻¹ and 0.0967 ± 0.00333 s⁻¹, respectively. The catalytic efficiency (kcat/Km) came out at 523 M⁻¹ s⁻¹ in the series “purified protein”, 2730 M⁻¹ s⁻¹ in series [1] and 5090 M⁻¹ s⁻¹ in series [2].

B3: OsUGT91C1 (Oryza sativa Japonica Group) (protein)
chain: T1 sequence (Q0DPB7 1-462)
notes: as for B1
On to B3, for which the Michaelis constant (Km) was determined as 45.7 ± 3.0 µM in the series “purified protein”, 49.5 ± 5.3 µM in series [1], 24.9 ± 2.5 µM in series [2] and 71 ± 12 µM in series [3]. Further, the kcat in the series “purified protein” was 0.0203 s⁻¹; in series [1], 0.0333 ± 0.00167 s⁻¹; in series [2], 0.0483 ± 0.00167 s⁻¹; in series [3], 0.0105 ± 0.0005 s⁻¹. In addition, the kcat/Km in “purified protein” turned out to be 445 M⁻¹ s⁻¹; in series [1], 673 M⁻¹ s⁻¹; in series [2], 1940 M⁻¹ s⁻¹; in series [3], 148 M⁻¹ s⁻¹.

B4: OsUGT91C1 (Oryza sativa Japonica Group; F208M/F379A) (protein)
chain: T1 sequence (Q0DPB7 1-462) with F208M, F379A
notes: as for B1
Consider B4, for which, in “purified protein”, the Km was 15.1 ± 2.6 µM, the kcat came to 0.0283 s⁻¹ and the kcat/Km was 1880 M⁻¹ s⁻¹. In series [1], the Km worked out at 11.7 ± 1.0 µM, the kcat amounted to 0.0467 ± 0.00167 s⁻¹ and the kcat/Km worked out at 3990 M⁻¹ s⁻¹. In series [2], the Km is 9.7 ± 1.9 µM, the kcat was 0.0583 ± 0.00167 s⁻¹ and the catalytic efficiency (kcat/Km) was 6010 M⁻¹ s⁻¹.

Values taken from article PMC8639739, “Catalytic flexibility of rice glycosyltransferase OsUGT91C1 for the production of palatable steviol glycosides” (Nature Communications, 2021).
